Data reported in patent US20040126819A1 (LICENTIA, published 2004).

Key:
[1] = target: T1, 135 kD GDNF receptor subunit of rat cell lines; experiment: displacement of 125I-GDNF by cold GDNF on RN33B cells, cross-linking, SDS-PAGE, bands counted
T1 construct: On C6, L6, RN33B and RN46A cells
Method: (§1) Plated cells were incubated with 10 ng/ml […] at 4° C. in binding buffer as described above. Ligand/receptor complexes were chemically cross-linked for thirty minutes at room temperature using either disuccinimidyl suberate (DSS) or 1-Ethyl-3(-3-dimethylaminopropyl)-carbodiimide hydrochloride (EDAC) (Pierce Chemical, Rockland, Ill.). Following quenching of the cross-linking reactions, cells were washed twice with 10 mM Tris/HCl buffered saline, 2 mM EDTA, 10% glycerol, 1% NP40, 1% Triton x-100, 10 μg/ml leupeptin, 10 μg/ml antipain, 50 μg/ml aprotinin, 100 μg/ml benzamidine hydrochloride, 10 μg/ml pepstatin and 1 mM PMSF(proteinase inhibitors from Sigma). Cleared lysates were boiled for 5 min in SDS/β-mercaptoethanol buffer, fractionated by SDS/PAGE on 4-20% gradient electrophoresis gels, and visualized by autoradiography. […] These samples were fractionated by gradient SDS/PAGE, gels were then dried and specific bands excised according to molecular weights determined from autoradiograms, and count in a gamma counter. […]
(§2) In order to dissect the individual constituent affinities of GDNF receptor subunits, displacement binding assays were performed, followed by cross-linking and SDS-PAGE. Receptor-ligand complexes were visualized by autoradiography, cut out from the gel and counted in a gamma counter.

[2] = target: T2, 300 kD GDNF receptor subunit of rat cell lines; experiment: as above
T2 construct: On C6, L6, RN33B, RN46A and ST15A cells; also called large molecular weight band; high molecular weight component
Method: as §1, §2

[3] = target: 300 kD GDNF receptor subunit of mouse cell lines (MN-1, TM4, SK-N-SH as printed); experiment: displacement of 125I-GDNF by cold GDNF on MN-1 cells, cross-linking, SDS-PAGE, bands counted
Method: as §1, §2

[4] = target: T3, 55 kD GDNF receptor subunit of rat cell lines (confirmed to be GDNFR-α) (rat, UniProt Q62997 25-430); experiment: displacement of 125I-GDNF by increasing cold GDNF on RN33B cells, cross-linking, SDS-PAGE, band of the subunit cut out and counted
T3 construct: whole, on cells; also called 50-55 kD receptor; 70 kD complex (with GDNF) in RN33B cells
T3 sequence (looked up): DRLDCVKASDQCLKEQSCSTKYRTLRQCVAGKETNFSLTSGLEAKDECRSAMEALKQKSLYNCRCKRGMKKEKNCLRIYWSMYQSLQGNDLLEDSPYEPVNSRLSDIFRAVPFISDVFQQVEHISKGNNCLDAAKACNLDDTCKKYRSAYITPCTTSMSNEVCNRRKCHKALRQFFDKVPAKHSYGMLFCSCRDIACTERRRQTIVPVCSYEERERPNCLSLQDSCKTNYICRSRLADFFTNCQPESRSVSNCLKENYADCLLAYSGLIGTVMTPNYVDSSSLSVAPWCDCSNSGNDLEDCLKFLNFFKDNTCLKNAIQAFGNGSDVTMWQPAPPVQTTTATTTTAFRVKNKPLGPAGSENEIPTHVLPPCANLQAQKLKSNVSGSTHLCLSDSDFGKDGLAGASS
Method: (§3) Plated cells were incubated with 10 ng/ml […] at 4° C. in binding buffer as described above. Ligand/receptor complexes were chemically cross-linked for thirty minutes at room temperature using either disuccinimidyl suberate (DSS) or 1-Ethyl-3(-3-dimethylaminopropyl)-carbodiimide hydrochloride (EDAC) (Pierce Chemical, Rockland, Ill.). Following quenching of the cross-linking reactions, cells were washed twice with 10 mM Tris/HCl buffered saline, 2 mM EDTA, 10% glycerol, 1% NP40, 1% Triton x-100, 10 μg/ml leupeptin, 10 μg/ml antipain, 50 μg/ml aprotinin, 100 μg/ml benzamidine hydrochloride, 10 μg/ml pepstatin and 1 mM PMSF(proteinase inhibitors from Sigma). Cleared lysates were boiled for 5 min in SDS/β-mercaptoethanol buffer, fractionated by SDS/PAGE on 4-20% gradient electrophoresis gels, and visualized by autoradiography. Molecular weights indicated were obtained by subtracting the weight of a GDNF ligand monomer, e.g., 25-30 kD, more preferably […], from the estimated molecular weights of cross-linked complexes visualized by SDS/PAGE. For affinity measurements of cross-linked complexes, cells were incubated on plates as above in the presence of increasing amounts of unlabeled GDNF. These samples were fractionated by gradient SDS/PAGE, gels were then dried and specific bands excised according to molecular weights determined from autoradiograms, and count in a gamma counter. […] Immunocomplexes were collected with Protein A-Sepharose (Pharmacia, Sweden), washed in lysis buffer and boiled for 5 minutes before SDS/PAGE and autoradiography as above.
as §2

[5] = target: T1, 135 kD GDNF receptor subunit of rat …; experiment: as above
Method: as §3, §2

[6] = target: T4, 70 kD GDNF receptor subunit of rat cell lines (designated GDNFR-β) (rat, UniProt O35977 22-444); experiment: as above
T4 construct: whole, on cells; also called 65-70 kD receptor; 100 kD complex (with GDNF) in RN33B cells
T4 sequence: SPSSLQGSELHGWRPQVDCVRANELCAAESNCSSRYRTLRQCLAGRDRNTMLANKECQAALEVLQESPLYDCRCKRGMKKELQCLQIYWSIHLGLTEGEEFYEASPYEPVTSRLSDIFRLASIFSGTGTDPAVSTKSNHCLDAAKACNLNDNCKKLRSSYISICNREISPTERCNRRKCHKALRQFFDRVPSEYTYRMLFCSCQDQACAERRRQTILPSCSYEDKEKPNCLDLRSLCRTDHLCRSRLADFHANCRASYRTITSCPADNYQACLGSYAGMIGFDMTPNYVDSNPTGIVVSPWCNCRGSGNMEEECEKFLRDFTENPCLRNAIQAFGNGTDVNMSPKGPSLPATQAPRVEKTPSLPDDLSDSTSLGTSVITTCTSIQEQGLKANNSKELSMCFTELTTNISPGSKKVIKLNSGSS
Method: as §3, §2

[7] = target: T2, 300 kD GDNF receptor subunit of rat …; experiment: as above
Method: as §3, §2

B1: recombinant rat GDNF produced in Sf21 insect cells using a baculovirus expression system (ligand, UniProt Q07731 78-211, looked up)
chain: SPDKQAAALPRRERNRQAAAASPENSRGKGRRGQRGKNRGCVLTAIHLNVTDLGLGYETKEELIFRYCSGSCEAAETMYDKILKNLSRSRRLTSDKVGQACCRPVAFDDDLSFLDDSLVYHILRKHSAKRCGCI
modifications: labeled with Na-^125I by the chloramine-T method where used as tracer
notes: mature; also called glial cell line-derived neurotrophic factor
~200 pM: Kd [1] | Kd [2] | Kd [3] | IC50 (read off the curve) [4] | IC50 (read off the curve) [5] | IC50 (read off the curve) [6]
~100 pM: IC50 (read off the curve) [7]
